Test results from publication PMC12528898 (The Journal of Biological Chemistry, 2025).

T1: mNeon PPM1H (full-length PPM1H with mNeon inserted into loop 1 at position 125) (human, UniProt Q9ULR3 1-514)
T1 construct: PPM1H phosphatase, human, full length; mNeon inserted into loop 1 (residues 115-133) at position 125; the plasmid is pET15b His SUMO mNeon PPM1H; His-SUMO removed by Ulp1 before gel filtration; also called WT PPM1H; HisSUMO-mNeon PPM1H; not shown: mNeon, internal (loop 1, at position 125), kept
T1 sequence (looked up): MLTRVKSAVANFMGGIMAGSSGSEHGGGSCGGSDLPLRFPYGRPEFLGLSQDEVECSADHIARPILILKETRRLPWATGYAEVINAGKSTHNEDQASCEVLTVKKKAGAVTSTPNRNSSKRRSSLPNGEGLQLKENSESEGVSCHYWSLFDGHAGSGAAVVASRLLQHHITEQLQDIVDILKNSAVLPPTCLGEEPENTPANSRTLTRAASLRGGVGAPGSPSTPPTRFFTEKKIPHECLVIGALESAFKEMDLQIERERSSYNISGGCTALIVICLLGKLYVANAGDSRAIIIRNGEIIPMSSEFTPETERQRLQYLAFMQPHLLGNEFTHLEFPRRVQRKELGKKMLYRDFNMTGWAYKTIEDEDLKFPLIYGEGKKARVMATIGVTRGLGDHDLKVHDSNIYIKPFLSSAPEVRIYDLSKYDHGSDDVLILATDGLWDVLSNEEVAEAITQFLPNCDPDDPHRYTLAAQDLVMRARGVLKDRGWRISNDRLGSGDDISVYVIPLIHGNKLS

B1: Rab10 Q68L (full length, nonprenylated, nonphosphorylated) (natural protein, human, UniProt P61026 1-200, looked up)
chain: MAKKTYDLLFKLLLIGDSGVGKTCVLFRFSDDAFNTTFISTIGIDFKIKTVELQGKKIKLQIWDTAGLERFHTITTSYYRGAMGIMLVYDITNGKSFENISKWLRNIDEHANEDVERMLLGNKCDMDDKRVVPKGKGEQIAREHGIRFFETSAKANINIEKAFLTLAEDILRKTPVKEPNSENVDISSGGGVTGWKSKCC
notes: also called His SUMO Rab10 (full length) Q68L; untagged Rab10 Q68L; source: E. coli, purified (TALON, Ulp1 cleavage, Superdex 200), 20 μM GTP in all buffers
B2: His Rab8A Q67L (full length, nonprenylated, nonphosphorylated) (natural protein, human, UniProt P61006 1-207, looked up)
chain: MAKTYDYLFKLLLIGDSGVGKTCVLFRFSEDAFNSTFISTIGIDFKIRTIELDGKRIKLQIWDTAGLERFRTITTAYYRGAMGIMLVYDITNEKSFDNIRNWIRNIEEHASADVEKMILGNKCDVNDKRQVSKERGEKLALDYGIKFMETSAKANINVENAFFTLARDIKAKMDKKLEGNSPQGSNQGVKITPDQQKRSSFFRCVLL
notes: subcloned from HA-Rab8A (DU35414) into pET14b; also called Rab8A-6XHis; unphosphorylated Rab8A; source: E. coli, purified (TALON, Superdex 75), 20 μM GTP in all buffers
B3: Thiophosphorylated His Rab8A Q67L (natural protein, human, UniProt P61006 1-207, looked up)
chain: B2 chain
modifications: thiophosphorylated with ATPγS by MST3 kinase (fully modified by PhosTag gel); the residue is not given
notes: Rab8A GTPase, full length, Q67L, thiophosphorylated form of m5; also called Thio-pRab8A (Q67L); thiophosphorylated Rab8A; source: E. coli, purified (TALON, Superdex 75); thiophosphorylated in vitro overnight at 4 °C by His-MST3 kinase with ATPγS
B4: Rab12 Q101L (full length, nonprenylated, nonphosphorylated) (natural protein, human, UniProt Q6IQ22-2 1-244, looked up)
chain: MDPGAALQRRAGGGGGLGAGSPALSGGQGRRRKQPPRPADFKLQVIIIGSRGVGKTSLMERFTDDTFCEACKSTVGVDFKIKTVELRGKKIRLQIWDTAGLERFNSITSAYYRSAKGIILVYDITKKETFDDLPKWMKMIDKYASEDAELLLVGNKLDCETDREITRQQGEKFAQQITGMRFCEASAKDNFNVDEIFLKLVDDILKKMPLDILRNELSNSILSLQPEPEIPPELPPPRPHVRCC
notes: also called His SUMO Rab12 (full length) Q101L; source: E. coli, purified (TALON, Ulp1 cleavage, Superdex 200), 20 μM GTP in all buffers

target: T1, mNeon PPM1H (full-length PPM1H with …); assay: MST; unlabelled Rab protein (16 serial dilutions) titrated against 100 nM fluorescent mNeon PPM1H variant; 30 min in the dark; Monolith NT.115; three independent measurements with different protein preparations; conditions: both partners purified

Kd [nM]	Binder
1300	B1
1400	B2
1000	B3
7400	B4
